Measured values taken from US9260500B2, “Peptide and use thereof” (Takeda Pharmaceutical Company Limited, priority 2009, dated 2016).
Starred links: 1 amine or outer side, 2 acyl side, 3 side chain; linkers in the order of their positions; H or OH if unused. Non-standard residues stand in square brackets, D forms with d. *: point of attachment. Imidazole4carbonyl = O=C(c1cnc[nH]1)*; tBuAla = CC(C)(C)C[C@H](N)C(=O)O; αMeF = C[C@](N)(Cc1ccccc1)C(=O)O; 4Pal = N[C@@H](Cc1ccncc1)C(=O)O; dHyp = O=C(O)[C@H]1C[C@H](O)CN1; Cha = N[C@@H](CC1CCCCC1)C(=O)O; Suc = O=C(CCC(=O)[*:2])[*:1]; Iva = CC[C@](C)(N)C(=O)O; Nle = CCCC[C@H](N)C(=O)O; Aib = CC(C)(N)C(=O)O

How the values were obtained:
human Y2 receptor [1] = target: T1, human Y2 receptor (Homo sapiens, UniProt P49146); assay: Receptor Binding Assay (RBA) for Human Y2, [125I]-PYY displacement on hY2R/CHO membrane fraction; details: IC50 of test compound/IC50 of PYY(3-36) (PYY(3-36) taken as 1)
T1 construct: expressed in transfected cells; membrane fraction
T1 sequence (P49146 1-381): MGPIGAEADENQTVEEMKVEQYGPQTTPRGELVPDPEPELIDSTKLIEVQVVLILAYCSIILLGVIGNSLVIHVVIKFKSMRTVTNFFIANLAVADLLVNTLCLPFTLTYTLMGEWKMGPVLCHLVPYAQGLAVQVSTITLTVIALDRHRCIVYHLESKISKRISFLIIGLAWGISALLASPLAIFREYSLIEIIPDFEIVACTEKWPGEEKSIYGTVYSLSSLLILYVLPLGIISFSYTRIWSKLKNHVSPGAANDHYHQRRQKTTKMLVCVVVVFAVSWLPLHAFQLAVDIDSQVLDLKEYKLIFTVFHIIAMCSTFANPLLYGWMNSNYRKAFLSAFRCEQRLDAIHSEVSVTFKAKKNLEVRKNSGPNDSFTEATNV
How it was run: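 Read-out is [125I]-PYY displacement from membranes of CHO/dhfr− cells stably transfected with human Y2R. Membranes were obtained by disrupting cells in a buffer of 10 mM NaHCO3, 5 mM EDTA and protease inhibitors.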

human Y2 receptor [2] = target: T1, human Y2 receptor; assay: Human Y2 Receptor G Protein Binding Assay (GBA), [35S]GTPγS; format: biochemical; details: EC50 of test compound/EC50 of PYY(3-36) (PYY3-36 taken as 1), hY2R/CHO membrane fraction
How it was run: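 Agonism measured as [35S]GTPγS binding, read by GF/C filtration and scintillation counting after 120 min at room temperature, using human Y2 membranes at 1 μg protein/mL in pH 7.4 Tris/MgCl2/NaCl/GDP buffer. Compound serially diluted 100 μM–1 nM; EC50 normalized to PYY(3-36) (ratio = compound/PYY).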

male C57EL/6J mice = assay: 3-Days Continuous Subcutaneous Administration Test-1 (food intake suppressing activity); format: in vivo, mouse; details: 0.03 mg/kg/day, subcutaneous Alzet pump, food consumption over 3 days; relative to food intake suppression rate for PYY(3-36) (1 mg/kg/day) taken as 100%
Method: (4) Test Method: 3-Days Continuous Subcutaneous Administration Test-1
The food intake suppressing activity of the compound of the present invention was examined by the method described below.
The test compound was dissolved in 50% DMSO so that sustained release would occur at 0.03 mg/kg/day, and the solution was filled in the Alzet Pump (Alzet model: 1003D, sustained release rate: 1 μL/hr, capacity: 100 μL). After the filling, the pump was placed in a 2 mL Eppendorf tube containing 330 μL of physiological saline, and incubated at 37° C. for 2 hours or more. Thereafter, this pump was subcutaneously embedded in the back of each mouse by the method described below. After weighing, each male […] mice at 12-13 weeks of age (25° C., allowed to take food and water ad libitum; 12-hour bright-12-hour dark cycle, lighting turned on at 08:00) was anesthetized with diethyl ether; the skin in the upper back thereof was incised, and the above-mentioned pump was embedded subcutaneously. Thereafter, several drops of penicillin solution (100000 units/mL) were added to the incised part, and the incision was sutured using Michel's surgical needle. This mouse was returned to the rearing cage (reared alone), and given previously weighed food; 3 days later, the amount of remaining food was measured. Food consumption was calculated by subtracting the amount of remaining food after 3 days from the weight of the food given on the day of pump embedding. The food intake suppressing activity of each test compound was expressed as a food intake suppression rate (%) relative to the food intake suppression rate for PYY(3-36) (1 mg/kg/day) taken as 100%.

Row | RBA IC50 Ratio (human Y2 receptor [1]) | GBA EC50 Ratio (human Y2 receptor [2]) | Substance | food intake suppression rate (%) (male C57EL/6J mice)
1 | 2 | 1.9 | 3-Carboxypropionyl-[Gln23, D-Pro24, Pya(4)26, Cha27,36, Aib28,31, Lys30]-PYY(23-36) (Suc-Q[dP]R[4Pal][Cha][Aib]NK[Aib]TRQR[Cha]-NH2; SMILES C[C@@H](O)[C@H](NC(=O)C(C)(C)NC(=O)[C@H](CCCCN)NC(=O)[C@H](CC(N)=O)NC(=O)C(C)(C)NC(=O)[C@H](CC1CCCCC1)NC(=O)[C@H](Cc1ccncc1)NC(=O)[C@H](CCCNC(=N)N)NC(=O)[C@H]1CCCN1C(=O)[C@H](CCC(N)=O)NC(=O)CCC(=O)O)C(=O)N[C@@H](CCCNC(=N)N)C(=O)N[C@@H](CCC(N)=O)C(=O)N[C@@H](CCCNC(=N)N)C(=O)N[C@@H](CC1CCCCC1)C(N)=O) [compound No. 218] | 27
2 | 1.9 | 1.7 | 4-Imidazolecarbonyl-[Aib24,28,31, Iva25, Pya(4)26, Cha27,36, Lys30]-PYY(23-36) [compound No. 344] | 22
3 | 0.99 | 1.3 | 4-Imidazolecarbonyl-[D-Hyp24, Iva25,28, Pya(4)26, Cha27,36, Lys30, Adb31]-PYY(23-36) [compound No. 337] | 49
4 | 1.3 | 0.92 | 4-Imidazolecarbonyl-[D-Hyp24, Iva25, Pya(4)26, Cha27,36, Aib28,31, Lys30]-PYY(23-36) (Imidazole4carbonyl-S[dHyp][Iva][4Pal][Cha][Aib]NK[Aib]TRQR[Cha]-NH2; SMILES CC[C@](C)(NC(=O)[C@H]1C[C@H](O)CN1C(=O)[C@H](CO)NC(=O)c1cnc[nH]1)C(=O)N[C@@H](Cc1ccncc1)C(=O)N[C@@H](CC1CCCCC1)C(=O)NC(C)(C)C(=O)N[C@@H](CC(N)=O)C(=O)N[C@@H](CCCCN)C(=O)NC(C)(C)C(=O)N[C@H](C(=O)N[C@@H](CCCNC(=N)N)C(=O)N[C@@H](CCC(N)=O)C(=O)N[C@@H](CCCNC(=N)N)C(=O)N[C@@H](CC1CCCCC1)C(N)=O)[C@@H](C)O) [compound No. 299] | 46
5 | 0.65 | 1.0 | 4-Imidazolecarbonyl-[D-Hyp24, Iva25, Pya(4)26, Cha27,36, αMePhe28, Lys30, Aib31]-PYY(23-36) (Imidazole4carbonyl-S[dHyp][Iva][4Pal][Cha][αMeF]NK[Aib]TRQR[Cha]-NH2; SMILES CC[C@](C)(NC(=O)[C@H]1C[C@H](O)CN1C(=O)[C@H](CO)NC(=O)c1cnc[nH]1)C(=O)N[C@@H](Cc1ccncc1)C(=O)N[C@@H](CC1CCCCC1)C(=O)N[C@@](C)(Cc1ccccc1)C(=O)N[C@@H](CC(N)=O)C(=O)N[C@@H](CCCCN)C(=O)NC(C)(C)C(=O)N[C@H](C(=O)N[C@@H](CCCNC(=N)N)C(=O)N[C@@H](CCC(N)=O)C(=O)N[C@@H](CCCNC(=N)N)C(=O)N[C@@H](CC1CCCCC1)C(N)=O)[C@@H](C)O) [compound No. 343] | 15
6 | 2.3 | 1.9 | 4-Imidazolecarbonyl-[D-Pro24, Iva25, Pya(4)26, Cha27,30,36, Aib28,31]-PYY(23-36) (Imidazole4carbonyl-S[dP][Iva][4Pal][Cha][Aib]N[Cha][Aib]TRQR[Cha]-NH2; SMILES CC[C@](C)(NC(=O)[C@H]1CCCN1C(=O)[C@H](CO)NC(=O)c1cnc[nH]1)C(=O)N[C@@H](Cc1ccncc1)C(=O)N[C@@H](CC1CCCCC1)C(=O)NC(C)(C)C(=O)N[C@@H](CC(N)=O)C(=O)N[C@@H](CC1CCCCC1)C(=O)NC(C)(C)C(=O)N[C@H](C(=O)N[C@@H](CCCNC(=N)N)C(=O)N[C@@H](CCC(N)=O)C(=O)N[C@@H](CCCNC(=N)N)C(=O)N[C@@H](CC1CCCCC1)C(N)=O)[C@@H](C)O) [compound No. 318] | 18
7 | 0.77 | 0.91 | 4-Imidazolecarbonyl-[D-Pro24, Iva25, Pya(4)26, Cha27,36, Aib28,31, Lys30]-PYY(23-36) (Imidazole4carbonyl-S[dP][Iva][4Pal][Cha][Aib]NK[Aib]TRQR[Cha]-NH2; SMILES CC[C@](C)(NC(=O)[C@H]1CCCN1C(=O)[C@H](CO)NC(=O)c1cnc[nH]1)C(=O)N[C@@H](Cc1ccncc1)C(=O)N[C@@H](CC1CCCCC1)C(=O)NC(C)(C)C(=O)N[C@@H](CC(N)=O)C(=O)N[C@@H](CCCCN)C(=O)NC(C)(C)C(=O)N[C@H](C(=O)N[C@@H](CCCNC(=N)N)C(=O)N[C@@H](CCC(N)=O)C(=O)N[C@@H](CCCNC(=N)N)C(=O)N[C@@H](CC1CCCCC1)C(N)=O)[C@@H](C)O) [compound No. 300] | 35
8 | 1.7 | 1.2 | 4-Imidazolecarbonyl-[D-Pro24, Nle25, Pya(4)26, Cha27,36, Aib28,31, Lys30]-PYY(23-36) (Imidazole4carbonyl-S[dP][Nle][4Pal][Cha][Aib]NK[Aib]TRQR[Cha]-NH2; SMILES CCCC[C@H](NC(=O)[C@H]1CCCN1C(=O)[C@H](CO)NC(=O)c1cnc[nH]1)C(=O)N[C@@H](Cc1ccncc1)C(=O)N[C@@H](CC1CCCCC1)C(=O)NC(C)(C)C(=O)N[C@@H](CC(N)=O)C(=O)N[C@@H](CCCCN)C(=O)NC(C)(C)C(=O)N[C@H](C(=O)N[C@@H](CCCNC(=N)N)C(=O)N[C@@H](CCC(N)=O)C(=O)N[C@@H](CCCNC(=N)N)C(=O)N[C@@H](CC1CCCCC1)C(N)=O)[C@@H](C)O) [compound No. 302] | 22
9 | 0.76 | 1.1 | 4-Imidazolecarbonyl-[D-Pro24, Pya(4)26, Cha27,36, Aib28,31, Lys30]-PYY(23-36) (Imidazole4carbonyl-S[dP]R[4Pal][Cha][Aib]NK[Aib]TRQR[Cha]-NH2; SMILES C[C@@H](O)[C@H](NC(=O)C(C)(C)NC(=O)[C@H](CCCCN)NC(=O)[C@H](CC(N)=O)NC(=O)C(C)(C)NC(=O)[C@H](CC1CCCCC1)NC(=O)[C@H](Cc1ccncc1)NC(=O)[C@H](CCCNC(=N)N)NC(=O)[C@H]1CCCN1C(=O)[C@H](CO)NC(=O)c1cnc[nH]1)C(=O)N[C@@H](CCCNC(=N)N)C(=O)N[C@@H](CCC(N)=O)C(=O)N[C@@H](CCCNC(=N)N)C(=O)N[C@@H](CC1CCCCC1)C(N)=O) [compound No. 213] | 33
10 | 1.3 | 1.3 | 4-Imidazolecarbonyl-[Glu23, D-Pro24, Pya(4)26, Cha27,36, Aib28,31, Lys30]-PYY(23-36) (Imidazole4carbonyl-E[dP]R[4Pal][Cha][Aib]NK[Aib]TRQR[Cha]-NH2; SMILES C[C@@H](O)[C@H](NC(=O)C(C)(C)NC(=O)[C@H](CCCCN)NC(=O)[C@H](CC(N)=O)NC(=O)C(C)(C)NC(=O)[C@H](CC1CCCCC1)NC(=O)[C@H](Cc1ccncc1)NC(=O)[C@H](CCCNC(=N)N)NC(=O)[C@H]1CCCN1C(=O)[C@H](CCC(=O)O)NC(=O)c1cnc[nH]1)C(=O)N[C@@H](CCCNC(=N)N)C(=O)N[C@@H](CCC(N)=O)C(=O)N[C@@H](CCCNC(=N)N)C(=O)N[C@@H](CC1CCCCC1)C(N)=O) [compound No. 216] | 36

Row | Substance | RBA IC50 Ratio (human Y2 receptor [1]) | GBA EC50 Ratio (human Y2 receptor [2]) | food intake suppression rate (%) (male C57EL/6J mice)
11 | 4-Imidazolecarbonyl-[D-Hyp24, Iva25, Pya(4)26, Cha27,36, Leu(Me)28, Lys30, Aib31]-PYY(23-36) (Imidazole4carbonyl-S[dHyp][Iva][4Pal][Cha][tBuAla]NK[Aib]TRQR[Cha]-NH2; ends and bridges not checked) [compound No. 336] | 0.75 | 1.4 | 52
